In the supplement of paper PMC9876800:

Test system: peptide library, one residue held at a place counted from the S/T acceptor
Experiment: relative phosphorylation of the sub-library (ratio to the mean residue at this position); higher = residue favoured
Details: human
Outline: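 Purified recombinant kinases were reacted in 384-well plates with biotinylated degenerate peptide sub-libraries, each having one residue fixed at one position around a central Ser/Thr. The reaction mix contained 50 μM peptide plus 50 μM ATP spiked with γ-32P-ATP and ran for 90 min under kinase-specific conditions. Relative sub-library phosphorylation, taken from densitometry of phosphorimaged streptavidin membrane spots, is a ratio to the mean residue at that position.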

PLK4, construct: aa1-836, sequence (O00444 1-836, looked up): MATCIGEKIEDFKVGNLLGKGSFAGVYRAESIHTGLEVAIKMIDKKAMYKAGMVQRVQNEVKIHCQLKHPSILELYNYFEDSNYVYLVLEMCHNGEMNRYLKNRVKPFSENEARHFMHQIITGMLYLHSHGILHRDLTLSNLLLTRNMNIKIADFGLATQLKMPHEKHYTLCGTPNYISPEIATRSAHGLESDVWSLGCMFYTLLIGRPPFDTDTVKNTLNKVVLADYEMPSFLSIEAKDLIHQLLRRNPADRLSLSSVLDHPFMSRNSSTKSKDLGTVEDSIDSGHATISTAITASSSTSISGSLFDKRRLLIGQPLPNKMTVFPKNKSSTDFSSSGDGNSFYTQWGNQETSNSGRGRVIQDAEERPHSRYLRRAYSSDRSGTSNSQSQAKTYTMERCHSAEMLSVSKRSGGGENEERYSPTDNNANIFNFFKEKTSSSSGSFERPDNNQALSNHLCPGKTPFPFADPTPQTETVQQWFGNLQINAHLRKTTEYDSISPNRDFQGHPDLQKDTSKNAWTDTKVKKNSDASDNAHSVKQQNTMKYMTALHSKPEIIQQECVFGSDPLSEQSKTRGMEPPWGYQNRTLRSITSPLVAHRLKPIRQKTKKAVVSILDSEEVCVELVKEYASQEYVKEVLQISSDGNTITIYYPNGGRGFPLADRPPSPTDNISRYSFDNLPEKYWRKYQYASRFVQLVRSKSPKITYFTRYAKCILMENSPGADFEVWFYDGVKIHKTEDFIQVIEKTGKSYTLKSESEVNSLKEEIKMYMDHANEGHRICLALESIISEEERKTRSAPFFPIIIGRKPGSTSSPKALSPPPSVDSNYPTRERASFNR
PAK5, construct: aa425-end, sequence (Q9P286 425-719, looked up): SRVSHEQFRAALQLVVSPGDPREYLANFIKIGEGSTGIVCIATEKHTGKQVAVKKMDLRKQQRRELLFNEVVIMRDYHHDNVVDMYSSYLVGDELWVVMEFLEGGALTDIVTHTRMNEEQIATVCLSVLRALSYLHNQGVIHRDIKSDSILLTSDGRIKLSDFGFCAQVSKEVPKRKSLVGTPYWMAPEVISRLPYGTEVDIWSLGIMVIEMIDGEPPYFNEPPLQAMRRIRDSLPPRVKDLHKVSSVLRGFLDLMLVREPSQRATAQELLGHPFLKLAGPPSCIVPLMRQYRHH

PLK4, construct: aa1-836 (from UniProt O00444)
relative phosphorylation
Details	at +1	at +2	at +3	at +4	at -1	at -2	at -3	at -4	at -5
A fixed	0.459	0.471	0.813	1.24	0.953	0.708	1.03	1.24	1.26
D fixed	0.141	0.195	0.641	0.629	0.452	2.77	0.913	1.08	0.912
E fixed	0.135	0.148	0.874	0.705	0.493	1.26	0.791	0.991	0.918
F fixed	3.31	2.2	1.18	0.861	0.621	0.829	0.569	0.691	0.873
G fixed	0.61	0.24	0.821	1.4	2.08	1.35	1.25	1.42	1.43
H fixed	0.675	1.6	1.03	1.09	0.988	1.15	0.848	1.14	1.21
I fixed	1.67	1.39	1.4	1.01	0.347	0.395	0.478	0.625	0.582
K fixed	0.413	0.219	0.704	1.05	2.14	0.712	1.07	1.04	1.28
L fixed	1.62	1.35	1.33	1.01	0.858	0.398	0.715	0.748	0.771
M fixed	2.44	0.906	1.2	1.05	1.33	0.676	0.867	0.893	0.728
N fixed	0.409	0.294	0.58	0.829	1.09	2.41	1.97	1.54	1.28
P fixed	0.168	0.141	0.381	1.55	0.331	0.486	1.98	1.25	0.926
Q fixed	0.58	0.252	0.785	1.01	1.27	0.778	0.96	0.956	0.825
R fixed	0.44	0.216	0.609	0.711	1.85	0.75	1.14	0.944	1.07
V fixed	1.08	1.12	1.36	0.969	0.571	0.44	1.08	0.776	0.87
W fixed	1.47	2.81	1.84	0.991	0.672	1	0.717	0.917	1.21
Y fixed	1.38	3.44	1.44	0.889	0.955	0.881	0.627	0.746	0.848
pThr fixed	0.54	0.446	0.572	0.592	0.571	0.796	1.08	0.931	0.889
pTyr fixed	0.526	1.37	0.734	0.52	1.06	0.753	0.841	0.86	0.806

PAK5, construct: aa425-end (from UniProt Q9P286)
relative phosphorylation
Details	at +1	at +2	at +3	at +4	at -1	at -2	at -3	at -4	at -5
A fixed	0.523	3.81	0.935	0.868	0.794	0.298	0.638	1.06	1.07
D fixed	0.142	0.456	0.657	0.741	0.332	0.0993	0.253	0.673	0.561
E fixed	0.161	0.217	0.94	0.704	0.254	0.0919	0.269	0.731	0.544
F fixed	1.37	0.928	1.42	0.877	1.06	0.519	0.574	0.881	0.948
G fixed	0.353	0.908	1.17	1.34	0.645	0.224	0.814	1.22	1.14
H fixed	0.93	0.94	1.08	0.987	1.36	1.1	1.02	1.16	1.18
I fixed	1.82	0.958	0.944	0.834	0.538	0.325	0.439	0.591	0.78
K fixed	0.715	0.343	0.634	0.97	1.72	0.815	3.3	1.53	1.74
L fixed	1.48	0.79	1.19	0.826	1.22	0.27	0.432	0.804	0.794
M fixed	1.83	0.681	1.07	0.876	1.28	0.347	0.557	0.932	0.835
N fixed	0.402	0.924	0.702	1.01	0.942	0.26	0.744	0.959	0.986
P fixed	0.18	0.846	1.08	1.74	0.278	0.576	0.567	0.867	0.899
Q fixed	0.672	0.742	0.842	0.977	0.991	0.455	0.895	1	0.836
R fixed	0.911	0.444	0.861	1.33	2.54	9.1	4.48	1.98	1.79
V fixed	1.55	1.87	0.962	0.798	0.531	0.333	0.376	0.586	0.791
W fixed	2.21	1.02	1.32	1.21	1.14	0.428	0.898	1.08	1.12
Y fixed	1.74	1.12	1.21	0.917	1.38	1.76	0.745	0.935	0.987
pThr fixed	0.367	0.442	0.647	0.925	0.214	0.201	0.373	0.693	0.735
pTyr fixed	0.581	0.527	0.956	0.732	0.268	0.216	0.45	0.731	0.729
